Data from the supplement of paper PMC10567573.

B1: LCOR (parent)
chain: YKVKERLGTLKNPPKKKMKLMSG
B2: FAM189A2 (parent)
chain: NLAGFILGCQGAQFVSSVPRCDLV

Variants of: B1
Experiment: protein stability index of a GFP-peptide fusion (GPS, HEK-293T) (PSI 1-6); higher = more stable
Conditions: c terminus: native
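Further: lentivirally expressed fusions sorted by FACS into six bins by GFP to DsRed ratio, PSI derived from sequencing read proportions per bin multiplied by bin number.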

**Q.** For YKFKERLGTLKNPPKKKMKLMSG [V3F], which protein stability index is on record?
**A.** 1.62

**Q.** Which protein stability index does the source give for YKVKERPGTLKNPPKKKMKLMSG [L7P] here?
**A.** 1.55

**Q.** Which protein stability index does the source give for YDVKERLGTLKNPPKKKMKLMSG [K2D] here?
**A.** 1.48

**Q.** For YKVKRRLGTLKNPPKKKMKLMSG [E5R], which protein stability index is on record?
**A.** 1.95

**Q.** With YKVKCRLGTLKNPPKKKMKLMSG [E5C] as the variant, how does the protein stability index read?
**A.** 1.74

**Q.** With YKVKERLGTLKNPPKKKMKLISG [M21I] as the variant, how does the protein stability index read?
**A.** 1.92

**Q.** Which protein stability index does the source give for YKVKERLGTLKNPPKKKMKLTSG [M21T] here?
**A.** 1.76

**Q.** Which protein stability index does the source give for YKVKERLGTLKEPPKKKMKLMSG [N12E] here?
**A.** 1.61

**Q.** With YKVKERLGTLKNPPKKKMKLMYG [S22Y] as the variant, how does the protein stability index read?
**A.** 2.65

**Q.** Which protein stability index does the source give for YKVKERLGCLKNPPKKKMKLMSG [T9C] here?
**A.** 2.2

**Q.** Which protein stability index does the source give for YKVKERLGTAKNPPKKKMKLMSG [L10A] here?
**A.** 2.38

**Q.** Which protein stability index does the source give for YKVKERLGTEKNPPKKKMKLMSG [L10E] here?
**A.** 2.04

**Q.** For YKVKERLGTLKNQPKKKMKLMSG [P13Q], which protein stability index is on record?
**A.** 1.76

**Q.** For YKVKERLGTLKNGPKKKMKLMSG [P13G], which protein stability index is on record?
**A.** 1.5

Variants of: B2
Experiment: as above
Conditions: c terminus: a fixed tail appended

**Q.** For NLAGFILGCQGAQFVSSIPRCDLV [V18I], which protein stability index is on record?
**A.** 3.42

**Q.** For NLAGFILGCQGAQFVSSCPRCDLV [V18C], which protein stability index is on record?
**A.** 2.83

**Q.** With NLAGFILGCQGAQFVSSPPRCDLV [V18P] as the variant, how does the protein stability index read?
**A.** 2.8

**Q.** For NLAGFILGCQGAQFVSSYPRCDLV [V18Y], which protein stability index is on record?
**A.** 2.68

**Q.** For NLAGFILGCQGAQFVSSTPRCDLV [V18T], which protein stability index is on record?
**A.** 1.68

**Q.** For NLAGFILGCQGAQFVSSRPRCDLV [V18R], which protein stability index is on record?
**A.** 1.78

**Q.** For NLAGFILGCQGAQFVSSNPRCDLV [V18N], which protein stability index is on record?
**A.** 2.59

**Q.** For NLAGFILGCQGAQFVSSDPRCDLV [V18D], which protein stability index is on record?
**A.** 2.55

**Q.** For NLAGFILGCQGAQFVSSKPRCDLV [V18K], which protein stability index is on record?
**A.** 1.99

**Q.** With NLAGFILGCQGAQFVSSSPRCDLV [V18S] as the variant, how does the protein stability index read?
**A.** 2.4

**Q.** Which protein stability index does the source give for NLAGFILGCQGAQFVSSMPRCDLV [V18M] here?
**A.** 3.72

**Q.** Which protein stability index does the source give for NLAGFILGCQGAQFVSSLPRCDLV [V18L] here?
**A.** 2.27

**Q.** With NLAFFILGCQGAQFVSSVPRCDLV [G4F] as the variant, how does the protein stability index read?
**A.** 2.45

**Q.** For NLATFILGCQGAQFVSSVPRCDLV [G4T], which protein stability index is on record?
**A.** 3.08

**Q.** Which protein stability index does the source give for NLADFILGCQGAQFVSSVPRCDLV [G4D] here?
**A.** 2.36

**Q.** For NLANFILGCQGAQFVSSVPRCDLV [G4N], which protein stability index is on record?
**A.** 3.42

**Q.** Which protein stability index does the source give for NLAPFILGCQGAQFVSSVPRCDLV [G4P] here?
**A.** 3.65

**Q.** With NLAGFILYCQGAQFVSSVPRCDLV [G8Y] as the variant, how does the protein stability index read?
**A.** 3.33

**Q.** Which protein stability index does the source give for NLAGFILDCQGAQFVSSVPRCDLV [G8D] here?
**A.** 2.19

**Q.** For NLAGFILTCQGAQFVSSVPRCDLV [G8T], which protein stability index is on record?
**A.** 2.17

**Q.** Which protein stability index does the source give for NLAGFILKCQGAQFVSSVPRCDLV [G8K] here?
**A.** 3.72

**Q.** For NLAGFILFCQGAQFVSSVPRCDLV [G8F], which protein stability index is on record?
**A.** 3.47

**Q.** With NLAGFILPCQGAQFVSSVPRCDLV [G8P] as the variant, how does the protein stability index read?
**A.** 2.03

**Q.** With NLAGFILWCQGAQFVSSVPRCDLV [G8W] as the variant, how does the protein stability index read?
**A.** 2.45

**Q.** Which protein stability index does the source give for NLAGFILLCQGAQFVSSVPRCDLV [G8L] here?
**A.** 2.81

**Q.** For NLAGFILRCQGAQFVSSVPRCDLV [G8R], which protein stability index is on record?
**A.** 2.34

**Q.** With NLAGFILGCLGAQFVSSVPRCDLV [Q10L] as the variant, how does the protein stability index read?
**A.** 1.53

**Q.** Which protein stability index does the source give for NLAGFILGCIGAQFVSSVPRCDLV [Q10I] here?
**A.** 2.87

**Q.** For NLAGFILGCHGAQFVSSVPRCDLV [Q10H], which protein stability index is on record?
**A.** 2.76

**Q.** For NLAGFILGCCGAQFVSSVPRCDLV [Q10C], which protein stability index is on record?
**A.** 1.49

**Q.** For NLAGFILGCGGAQFVSSVPRCDLV [Q10G], which protein stability index is on record?
**A.** 2.63

**Q.** With NLAGFILGCDGAQFVSSVPRCDLV [Q10D] as the variant, how does the protein stability index read?
**A.** 3.6

**Q.** Which protein stability index does the source give for NLAGFILGCRGAQFVSSVPRCDLV [Q10R] here?
**A.** 2.51

**Q.** Which protein stability index does the source give for NLAGFILGCQGEQFVSSVPRCDLV [A12E] here?
**A.** 3.98

**Q.** Which protein stability index does the source give for NLAGFILGCQGHQFVSSVPRCDLV [A12H] here?
**A.** 1.03

**Q.** Which protein stability index does the source give for NLAGFILGCQGPQFVSSVPRCDLV [A12P] here?
**A.** 2.99

**Q.** Which protein stability index does the source give for NLAGFILGCQGFQFVSSVPRCDLV [A12F] here?
**A.** 2.91

**Q.** Which protein stability index does the source give for NLAGFILGCQGCQFVSSVPRCDLV [A12C] here?
**A.** 2.54

**Q.** For NLAGTILGCQGAQFVSSVPRCDLV [F5T], which protein stability index is on record?
**A.** 1.86

**Q.** With NLAGIILGCQGAQFVSSVPRCDLV [F5I] as the variant, how does the protein stability index read?
**A.** 5.13

**Q.** Which protein stability index does the source give for NLAGDILGCQGAQFVSSVPRCDLV [F5D] here?
**A.** 2.16

**Q.** For NLAGMILGCQGAQFVSSVPRCDLV [F5M], which protein stability index is on record?
**A.** 1.7

**Q.** With NLAGGILGCQGAQFVSSVPRCDLV [F5G] as the variant, how does the protein stability index read?
**A.** 1.5

**Q.** Which protein stability index does the source give for NLAGQILGCQGAQFVSSVPRCDLV [F5Q] here?
**A.** 2.27

**Q.** With NLAGFILGCQGAQFVSSVPRCPLV [D22P] as the variant, how does the protein stability index read?
**A.** 3.08

**Q.** Which protein stability index does the source give for NLAGFILGCQGAQFVSSVPRCVLV [D22V] here?
**A.** 2.39

**Q.** With NLAGFILGCQGAQFVSSVPRCGLV [D22G] as the variant, how does the protein stability index read?
**A.** 1.75

**Q.** With NLAGFILGCQGAQFVSSVPRCMLV [D22M] as the variant, how does the protein stability index read?
**A.** 2.78

**Q.** For NLAGFILGCQGAQNVSSVPRCDLV [F14N], which protein stability index is on record?
**A.** 1.72

**Q.** Which protein stability index does the source give for NLAGFILGCQGAQEVSSVPRCDLV [F14E] here?
**A.** 1.34

**Q.** Which protein stability index does the source give for NLAGFILGCQGAQAVSSVPRCDLV [F14A] here?
**A.** 1.29

**Q.** For NLAGFILGCQGAQHVSSVPRCDLV [F14H], which protein stability index is on record?
**A.** 1.87

**Q.** For NLAGFILGCQGAQMVSSVPRCDLV [F14M], which protein stability index is on record?
**A.** 2.71

**Q.** For NLAGFILGCQGAQVVSSVPRCDLV [F14V], which protein stability index is on record?
**A.** 2.29

**Q.** For NLAGFILGCQGAQRVSSVPRCDLV [F14R], which protein stability index is on record?
**A.** 1.27

**Q.** For NLAGFILGCQGAQKVSSVPRCDLV [F14K], which protein stability index is on record?
**A.** 1.16

**Q.** With NLAGFIRGCQGAQFVSSVPRCDLV [L7R] as the variant, how does the protein stability index read?
**A.** 1.63

**Q.** For NLAGFIKGCQGAQFVSSVPRCDLV [L7K], which protein stability index is on record?
**A.** 1.69

**Q.** Which protein stability index does the source give for NLAGFIQGCQGAQFVSSVPRCDLV [L7Q] here?
**A.** 2.1

**Q.** For NLAGFICGCQGAQFVSSVPRCDLV [L7C], which protein stability index is on record?
**A.** 2.6

**Q.** For NLAGFIDGCQGAQFVSSVPRCDLV [L7D], which protein stability index is on record?
**A.** 2.19

**Q.** For NLAGFITGCQGAQFVSSVPRCDLV [L7T], which protein stability index is on record?
**A.** 2.58

**Q.** For NLAGFISGCQGAQFVSSVPRCDLV [L7S], which protein stability index is on record?
**A.** 2.02

**Q.** Which protein stability index does the source give for NLAGFIEGCQGAQFVSSVPRCDLV [L7E] here?
**A.** 1.77

**Q.** For NLAGFIFGCQGAQFVSSVPRCDLV [L7F], which protein stability index is on record?
**A.** 2.51

**Q.** For YLAGFILGCQGAQFVSSVPRCDLV [N1Y], which protein stability index is on record?
**A.** 3.31

**Q.** With KLAGFILGCQGAQFVSSVPRCDLV [N1K] as the variant, how does the protein stability index read?
**A.** 2.77

**Q.** Which protein stability index does the source give for WLAGFILGCQGAQFVSSVPRCDLV [N1W] here?
**A.** 3.42

**Q.** With PLAGFILGCQGAQFVSSVPRCDLV [N1P] as the variant, how does the protein stability index read?
**A.** 2.63

**Q.** For RLAGFILGCQGAQFVSSVPRCDLV [N1R], which protein stability index is on record?
**A.** 2.73

**Q.** For HLAGFILGCQGAQFVSSVPRCDLV [N1H], which protein stability index is on record?
**A.** 2.03

**Q.** For GLAGFILGCQGAQFVSSVPRCDLV [N1G], which protein stability index is on record?
**A.** 1.51

**Q.** Which protein stability index does the source give for QLAGFILGCQGAQFVSSVPRCDLV [N1Q] here?
**A.** 1.85

**Q.** With NLAGFILGCQGAQFVSIVPRCDLV [S17I] as the variant, how does the protein stability index read?
**A.** 1.39

**Q.** Which protein stability index does the source give for NLAGFILGCQGAQFVSKVPRCDLV [S17K] here?
**A.** 2.33

**Q.** With NLAGFILGCQGAQFVSMVPRCDLV [S17M] as the variant, how does the protein stability index read?
**A.** 1.47

**Q.** Which protein stability index does the source give for NLAGFILGCQGAQFVSYVPRCDLV [S17Y] here?
**A.** 3.35

**Q.** For NLAGFILGCQGAQFVSTVPRCDLV [S17T], which protein stability index is on record?
**A.** 1.97

**Q.** Which protein stability index does the source give for NLAGFILGCQGAQFVSRVPRCDLV [S17R] here?
**A.** 2.1

**Q.** Which protein stability index does the source give for NLAGFILGCQGAQFVSSVPRCDFV [L23F] here?
**A.** 3.42
